{"source": "paper PMC8009405", "about": "“POT1 stability and binding measured by fluorescence thermal shift assays”", "key": {"[1]": {"target": "T1, POT1 (POT1-N) (UniProt Q9NUX5)", "T1 sequence": "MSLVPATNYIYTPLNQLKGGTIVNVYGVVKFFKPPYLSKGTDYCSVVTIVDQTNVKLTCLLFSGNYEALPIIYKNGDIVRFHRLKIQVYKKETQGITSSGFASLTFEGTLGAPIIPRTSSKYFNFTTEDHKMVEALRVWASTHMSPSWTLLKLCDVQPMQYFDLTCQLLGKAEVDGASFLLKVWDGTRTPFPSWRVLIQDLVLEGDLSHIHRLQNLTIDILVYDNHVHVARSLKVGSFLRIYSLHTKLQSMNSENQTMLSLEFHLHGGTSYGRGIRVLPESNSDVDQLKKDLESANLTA", "assay": "FTSA (SYPRO Orange)", "conditions": "PNA backbone; printed as TTAGGGTTAG-O; 20 mM potassium phosphate, 180 mM KCl, pH 7.2; FTSA 20-99 °C, typically 5 uM POT1 and 50 uM DNA"}, "[2]": {"target": "T2, POT1 (POT1-N) (UniProt Q9NUX5 1-299)", "T2 sequence": "T1 sequence", "assay": "FTSA titration (SYPRO Orange), Model 1; dCp_b -4300 J/mol/K; binding enthalpy fixed at -139 kJ/mol; dG25 -66.1 kJ/mol; 20 mM potassium phosphate, 180 mM KCl, pH 7.2; FTSA 20-99 °C, typically 5 uM POT1 and 50 uM DNA", "conditions": "protein: recombinant; tags: C-terminal 6xHis; single strand"}, "[3]": {"target": "T2, POT1 (POT1-N)", "assay": "FTSA titration (SYPRO Orange), Model 3; dCp_b 0; binding entropy and unfolding enthalpy fitted; dG25 -57.9 kJ/mol; 20 mM potassium phosphate, 180 mM KCl, pH 7.2; FTSA 20-99 °C, typically 5 uM POT1 and 50 uM DNA", "conditions": "protein: recombinant; tags: C-terminal 6xHis; single strand"}, "[4]": {"target": "T2, POT1 (POT1-N)", "assay": "FTSA titration (SYPRO Orange), Model 2; dCp_b fixed at 0; binding enthalpy and entropy fitted; dG25 -57.7 kJ/mol; 20 mM potassium phosphate, 180 mM KCl, pH 7.2; FTSA 20-99 °C, typically 5 uM POT1 and 50 uM DNA", "conditions": "protein: recombinant; tags: C-terminal 6xHis; single strand"}, "[5]": {"target": "T2, POT1 (POT1-N)", "assay": "FTSA (SYPRO Orange); no appreciable Tm shift; 20 mM potassium phosphate, 180 mM KCl, pH 7.2; FTSA 20-99 °C, typically 5 uM POT1 and 50 uM DNA", "conditions": "protein: recombinant; tags: C-terminal 6xHis; single strand"}}}
{"molecule": "TTAGGGTTAG [PNA of O1]", "values": [{"measurement": "binding signal (°C (delta Tm))", "setting": "[1]", "value": 1}]}
{"molecule": "TTAGGGTTAG (ssDNA)", "note": "[O1]", "values": [{"measurement": "Ka", "setting": "[2]", "value": "4e+11", "unit": "M⁻¹"}, {"measurement": "Ka", "setting": "[3]", "value": "1e+10", "unit": "M⁻¹"}, {"measurement": "Ka", "setting": "[4]", "value": "1e+10", "unit": "M⁻¹"}]}
{"molecule": "CTAACCCTAA (ssDNA)", "note": "[O1c (negative control)]", "values": [{"measurement": "binding result", "setting": "[5]", "value": "no binding"}]}
